# Numbered stars: 1 amine (or outer) side, 2 acyl side, 3 side chain; on linkers, the order of the positions; unused ones are H or OH. Bridge positions count the residues as written; N and C are the ends. Side chains are listed from the residue outwards. Ends that are not written are not given here. * marks the point of attachment. C20 diacid = O=C(O)CCCCCCCCCCCCCCCCCCC(=O)*; γGlu = O=C(O)[C@H](CCC(=O)[*:2])N[*:1]
# T1: human amylin receptor (amylin 3(a) receptor: human calcitonin receptor co-expressed with RAMP-3) (human, UniProt P30988 25-474; O60896 24-148, limits assumed)
# T1 construct: whole, on cells; Used as cell membranes prepared from the Amylin 3(a)/CRE-luc BHK cells (Assay V); also called hAmylin-R; hAmylinR
# T1 sequence (looked up) 1: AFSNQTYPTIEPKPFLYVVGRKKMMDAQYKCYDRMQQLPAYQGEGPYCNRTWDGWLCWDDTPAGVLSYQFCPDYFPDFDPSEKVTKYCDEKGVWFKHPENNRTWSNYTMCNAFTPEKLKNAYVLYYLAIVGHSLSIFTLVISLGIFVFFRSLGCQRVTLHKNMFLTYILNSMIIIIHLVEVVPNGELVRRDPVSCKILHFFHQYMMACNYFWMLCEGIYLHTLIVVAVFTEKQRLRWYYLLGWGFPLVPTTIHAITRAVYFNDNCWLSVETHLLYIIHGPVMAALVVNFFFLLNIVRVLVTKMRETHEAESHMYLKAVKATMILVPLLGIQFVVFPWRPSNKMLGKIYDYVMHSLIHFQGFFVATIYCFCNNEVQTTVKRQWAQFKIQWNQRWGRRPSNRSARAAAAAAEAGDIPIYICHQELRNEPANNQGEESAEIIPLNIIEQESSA
# T1 sequence (looked up) 2: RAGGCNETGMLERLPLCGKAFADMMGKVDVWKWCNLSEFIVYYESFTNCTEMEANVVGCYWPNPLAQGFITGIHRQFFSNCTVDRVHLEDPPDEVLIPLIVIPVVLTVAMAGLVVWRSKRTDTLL
# T2: human calcitonin receptor (human, UniProt P30988 25-474)
# T2 sequence (looked up): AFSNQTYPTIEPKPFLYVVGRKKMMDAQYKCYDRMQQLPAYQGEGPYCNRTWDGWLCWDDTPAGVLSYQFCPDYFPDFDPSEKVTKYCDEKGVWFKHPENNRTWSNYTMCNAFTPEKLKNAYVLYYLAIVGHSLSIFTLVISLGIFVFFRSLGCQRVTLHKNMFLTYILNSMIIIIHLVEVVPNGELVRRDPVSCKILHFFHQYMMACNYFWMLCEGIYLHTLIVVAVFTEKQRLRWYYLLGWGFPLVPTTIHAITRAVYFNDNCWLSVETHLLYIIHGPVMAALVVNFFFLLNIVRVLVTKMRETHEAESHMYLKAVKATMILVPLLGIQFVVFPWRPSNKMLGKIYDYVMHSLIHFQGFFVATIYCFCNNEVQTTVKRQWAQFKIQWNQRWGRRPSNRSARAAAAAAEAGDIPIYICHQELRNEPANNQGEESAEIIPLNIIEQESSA
# How the values were obtained:
# [1] = target: T1, human amylin receptor (amylin 3(a) …); experiment: SPA displacement of 125I-rat amylin, hAmylin 3(a) receptor membranes
# Outline: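 SPA beads with BHK Amylin 3(a)/CRE-luc cell membranes (35 ng/μL final) in 50 mM Hepes pH 7.4, 1 mM CaCl2, 5 mM MgCl₂, 0.1% OA, 0.02% Tween20.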
# [2] = target: T2, human calcitonin receptor; experiment: cell-based or functional assay
IC50 [1] [nM],"hCTR funct. EC50 (CRE luciferase reporter, BHK cells) [2] [nM]",Binder
0.148,,"K([γGlu-C20 diacid])CNTATCATQRLAAFLRHSSPNFGAIPSSTNVGPNTY-NH2 (disulfide 2-7; N-terminus assumed; SMILES CC[C@H](C)[C@H](NC(=O)[C@H](C)NC(=O)CNC(=O)[C@H](Cc1ccccc1)NC(=O)[C@H](CC(N)=O)NC(=O)[C@@H]1CCCN1C(=O)[C@H](CO)NC(=O)[C@H](CO)NC(=O)[C@H](Cc1c[nH]cn1)NC(=O)[C@H](CCCNC(=N)N)NC(=O)[C@H](CC(C)C)NC(=O)[C@H](Cc1ccccc1)NC(=O)[C@H](C)NC(=O)[C@H](C)NC(=O)[C@H](CC(C)C)NC(=O)[C@H](CCCNC(=N)N)NC(=O)[C@H](CCC(N)=O)NC(=O)[C@@H](NC(=O)[C@H](C)NC(=O)[C@@H]1CSSC[C@H](NC(=O)[C@@H](N)CCCCNC(=O)CC[C@H](NC(=O)CCCCCCCCCCCCCCCCCCC(=O)O)C(=O)O)C(=O)N[C@@H](CC(N)=O)C(=O)N[C@@H]([C@@H](C)O)C(=O)N[C@@H](C)C(=O)N[C@@H]([C@@H](C)O)C(=O)N1)[C@@H](C)O)C(=O)N1CCC[C@H]1C(=O)N[C@@H](CO)C(=O)N[C@@H](CO)C(=O)N[C@H](C(=O)N[C@@H](CC(N)=O)C(=O)N[C@H](C(=O)NCC(=O)N1CCC[C@H]1C(=O)N[C@@H](CC(N)=O)C(=O)N[C@H](C(=O)N[C@@H](Cc1ccc(O)cc1)C(N)=O)[C@@H](C)O)C(C)C)[C@@H](C)O, also called compound 94)"
0.281,,K([γGlu-C20 diacid])CNTATCATQRLADFLRHSSPNFGAIPSSTNVGPRTY-NH2 (disulfide 2-7; N-terminus assumed; SMILES CC[C@H](C)[C@H](NC(=O)[C@H](C)NC(=O)CNC(=O)[C@H](Cc1ccccc1)NC(=O)[C@H](CC(N)=O)NC(=O)[C@@H]1CCCN1C(=O)[C@H](CO)NC(=O)[C@H](CO)NC(=O)[C@H](Cc1c[nH]cn1)NC(=O)[C@H](CCCNC(=N)N)NC(=O)[C@H](CC(C)C)NC(=O)[C@H](Cc1ccccc1)NC(=O)[C@H](CC(=O)O)NC(=O)[C@H](C)NC(=O)[C@H](CC(C)C)NC(=O)[C@H](CCCNC(=N)N)NC(=O)[C@H](CCC(N)=O)NC(=O)[C@@H](NC(=O)[C@H](C)NC(=O)[C@@H]1CSSC[C@H](NC(=O)[C@@H](N)CCCCNC(=O)CC[C@H](NC(=O)CCCCCCCCCCCCCCCCCCC(=O)O)C(=O)O)C(=O)N[C@@H](CC(N)=O)C(=O)N[C@@H]([C@@H](C)O)C(=O)N[C@@H](C)C(=O)N[C@@H]([C@@H](C)O)C(=O)N1)[C@@H](C)O)C(=O)N1CCC[C@H]1C(=O)N[C@@H](CO)C(=O)N[C@@H](CO)C(=O)N[C@H](C(=O)N[C@@H](CC(N)=O)C(=O)N[C@H](C(=O)NCC(=O)N1CCC[C@H]1C(=O)N[C@@H](CCCNC(=N)N)C(=O)N[C@H](C(=O)N[C@@H](Cc1ccc(O)cc1)C(N)=O)[C@@H](C)O)C(C)C)[C@@H](C)O)
,0.09,"K([γGlu-C20 diacid])CNTATCATQRLAEFLRHSSPNFGAIPSSTNVGPNTP-NH2 (disulfide 2-7; N-terminus assumed; SMILES CC[C@H](C)[C@H](NC(=O)[C@H](C)NC(=O)CNC(=O)[C@H](Cc1ccccc1)NC(=O)[C@H](CC(N)=O)NC(=O)[C@@H]1CCCN1C(=O)[C@H](CO)NC(=O)[C@H](CO)NC(=O)[C@H](Cc1c[nH]cn1)NC(=O)[C@H](CCCNC(=N)N)NC(=O)[C@H](CC(C)C)NC(=O)[C@H](Cc1ccccc1)NC(=O)[C@H](CCC(=O)O)NC(=O)[C@H](C)NC(=O)[C@H](CC(C)C)NC(=O)[C@H](CCCNC(=N)N)NC(=O)[C@H](CCC(N)=O)NC(=O)[C@@H](NC(=O)[C@H](C)NC(=O)[C@@H]1CSSC[C@H](NC(=O)[C@@H](N)CCCCNC(=O)CC[C@H](NC(=O)CCCCCCCCCCCCCCCCCCC(=O)O)C(=O)O)C(=O)N[C@@H](CC(N)=O)C(=O)N[C@@H]([C@@H](C)O)C(=O)N[C@@H](C)C(=O)N[C@@H]([C@@H](C)O)C(=O)N1)[C@@H](C)O)C(=O)N1CCC[C@H]1C(=O)N[C@@H](CO)C(=O)N[C@@H](CO)C(=O)N[C@H](C(=O)N[C@@H](CC(N)=O)C(=O)N[C@H](C(=O)NCC(=O)N1CCC[C@H]1C(=O)N[C@@H](CC(N)=O)C(=O)N[C@H](C(=O)N1CCC[C@H]1C(N)=O)[C@@H](C)O)C(C)C)[C@@H](C)O, Synthetic acylated analogue of human amylin)"
,0.102,"K([γGlu-γGlu-C20 diacid])CNTATCATQRLAEFLRHSSPNFGAIPSSTNVGPETP-NH2 (disulfide 2-7; N-terminus assumed; SMILES CC[C@H](C)[C@H](NC(=O)[C@H](C)NC(=O)CNC(=O)[C@H](Cc1ccccc1)NC(=O)[C@H](CC(N)=O)NC(=O)[C@@H]1CCCN1C(=O)[C@H](CO)NC(=O)[C@H](CO)NC(=O)[C@H](Cc1c[nH]cn1)NC(=O)[C@H](CCCNC(=N)N)NC(=O)[C@H](CC(C)C)NC(=O)[C@H](Cc1ccccc1)NC(=O)[C@H](CCC(=O)O)NC(=O)[C@H](C)NC(=O)[C@H](CC(C)C)NC(=O)[C@H](CCCNC(=N)N)NC(=O)[C@H](CCC(N)=O)NC(=O)[C@@H](NC(=O)[C@H](C)NC(=O)[C@@H]1CSSC[C@H](NC(=O)[C@@H](N)CCCCNC(=O)CC[C@H](NC(=O)CC[C@H](NC(=O)CCCCCCCCCCCCCCCCCCC(=O)O)C(=O)O)C(=O)O)C(=O)N[C@@H](CC(N)=O)C(=O)N[C@@H]([C@@H](C)O)C(=O)N[C@@H](C)C(=O)N[C@@H]([C@@H](C)O)C(=O)N1)[C@@H](C)O)C(=O)N1CCC[C@H]1C(=O)N[C@@H](CO)C(=O)N[C@@H](CO)C(=O)N[C@H](C(=O)N[C@@H](CC(N)=O)C(=O)N[C@H](C(=O)NCC(=O)N1CCC[C@H]1C(=O)N[C@@H](CCC(=O)O)C(=O)N[C@H](C(=O)N1CCC[C@H]1C(N)=O)[C@@H](C)O)C(C)C)[C@@H](C)O, Synthetic acylated analogue of human amylin)"
,0.47,"K([γGlu-γGlu-C20 diacid])CNTATCATQRLAEFLRHSSPNFGAIPSSTNVGSNTP-NH2 (disulfide 2-7 (inferred), Synthetic acylated analogue of human amylin; also called compound 13)"
,0.185,"K([γGlu-C20 diacid])CNTATCATQRLAEFLRHSSPNFGAIPSSTNVGSNTP-NH2 (disulfide 2-7; N-terminus assumed; SMILES CC[C@H](C)[C@H](NC(=O)[C@H](C)NC(=O)CNC(=O)[C@H](Cc1ccccc1)NC(=O)[C@H](CC(N)=O)NC(=O)[C@@H]1CCCN1C(=O)[C@H](CO)NC(=O)[C@H](CO)NC(=O)[C@H](Cc1c[nH]cn1)NC(=O)[C@H](CCCNC(=N)N)NC(=O)[C@H](CC(C)C)NC(=O)[C@H](Cc1ccccc1)NC(=O)[C@H](CCC(=O)O)NC(=O)[C@H](C)NC(=O)[C@H](CC(C)C)NC(=O)[C@H](CCCNC(=N)N)NC(=O)[C@H](CCC(N)=O)NC(=O)[C@@H](NC(=O)[C@H](C)NC(=O)[C@@H]1CSSC[C@H](NC(=O)[C@@H](N)CCCCNC(=O)CC[C@H](NC(=O)CCCCCCCCCCCCCCCCCCC(=O)O)C(=O)O)C(=O)N[C@@H](CC(N)=O)C(=O)N[C@@H]([C@@H](C)O)C(=O)N[C@@H](C)C(=O)N[C@@H]([C@@H](C)O)C(=O)N1)[C@@H](C)O)C(=O)N1CCC[C@H]1C(=O)N[C@@H](CO)C(=O)N[C@@H](CO)C(=O)N[C@H](C(=O)N[C@@H](CC(N)=O)C(=O)N[C@H](C(=O)NCC(=O)N[C@@H](CO)C(=O)N[C@@H](CC(N)=O)C(=O)N[C@H](C(=O)N1CCC[C@H]1C(N)=O)[C@@H](C)O)C(C)C)[C@@H](C)O, Synthetic acylated analogue of human amylin; also called compound 12)"
,0.04,"K([γGlu-C20 diacid])CNTATCATQRLAHFLRHSSPNFGAIPSSTNVGPNTP-NH2 (disulfide 2-7; N-terminus assumed; SMILES CC[C@H](C)[C@H](NC(=O)[C@H](C)NC(=O)CNC(=O)[C@H](Cc1ccccc1)NC(=O)[C@H](CC(N)=O)NC(=O)[C@@H]1CCCN1C(=O)[C@H](CO)NC(=O)[C@H](CO)NC(=O)[C@H](Cc1c[nH]cn1)NC(=O)[C@H](CCCNC(=N)N)NC(=O)[C@H](CC(C)C)NC(=O)[C@H](Cc1ccccc1)NC(=O)[C@H](Cc1c[nH]cn1)NC(=O)[C@H](C)NC(=O)[C@H](CC(C)C)NC(=O)[C@H](CCCNC(=N)N)NC(=O)[C@H](CCC(N)=O)NC(=O)[C@@H](NC(=O)[C@H](C)NC(=O)[C@@H]1CSSC[C@H](NC(=O)[C@@H](N)CCCCNC(=O)CC[C@H](NC(=O)CCCCCCCCCCCCCCCCCCC(=O)O)C(=O)O)C(=O)N[C@@H](CC(N)=O)C(=O)N[C@@H]([C@@H](C)O)C(=O)N[C@@H](C)C(=O)N[C@@H]([C@@H](C)O)C(=O)N1)[C@@H](C)O)C(=O)N1CCC[C@H]1C(=O)N[C@@H](CO)C(=O)N[C@@H](CO)C(=O)N[C@H](C(=O)N[C@@H](CC(N)=O)C(=O)N[C@H](C(=O)NCC(=O)N1CCC[C@H]1C(=O)N[C@@H](CC(N)=O)C(=O)N[C@H](C(=O)N1CCC[C@H]1C(N)=O)[C@@H](C)O)C(C)C)[C@@H](C)O, Synthetic acylated analogue of human amylin)"

# Reference: patent US20140087995A1 (published 2014)
